Experimental findings from publication PMC10266124 (mAbs, 2023) are described below.

Residue numbers refer to the chain shown, from its start.

The target of this test is Biotinylated SARS-CoV-2 spike S1 protein (SARS-CoV-2, Wuhan, UniProt P0DTC2, biotin (biotinylated)). The test is described as follows: SPR. For orientation: SPR reads the build-up and loss of mass on a sensor chip optically.

B1: mAb18 (CV07-250) (antibody, V domains shown)
VH: QVQLVQSEAEVKEPGASVEVSCKASGYNFTNFAISWVRQAPGQGLEWMGWISGYNGDTNSAQKFLGRVTMTTDTSTTTAYMELRSLRSDDTAVYYCAGSDNYGFPYNGMDVWGQGTTVTVFN
VL: QSALTQPPSASGSPGQSVTISCTGTSSDLGAYHFVTWYQHYPGKAPKVMIYGVRKRPSGVPDRFSGSKSGNTASLTVSGLQDEDEADYYCSSYAGNNDFVFGGGTKLTVL
Turning to B1, the binding result is “binds”.

B2: mAb01 (bamlanivimab) (antibody, V domains shown)
VH: QVQLVQSGAEVKKPGSSVKVSCKASGGTFSNYAISWVRQAPGQGLEWMGRIIPILGIANYAQKFQGRVTITADKSTSTAYMELSSLRSEDTAVYYCARGYYEARHYYYYYAMDVWGQGTAVTVSS
VL: not shown
On to B2, for which the binding result is recorded as “binds”.

B3: mAb03 (imdevimab) (antibody, V domains shown)
VH: QVQLVESGGGVVQPGRSLRLSCAASGFTFSNYAMYWVRQAPGKGLEWVAVISYDGSNKYYADSVKGRFTISRDNSKNTLYLQMNSLRTEDTAVYYCASGSDYGDYLLVYWGQGTLVTVSS
VL: QSALTQPASVSGSPGQSITISCTGTSSDVGGYNYVSWYQQHPGKAPKLMIYDVSKRPSGVSNRFSGSKSGNTASLTISGLQSEDEADYYCNSLTSISTWVFGGGTKLTVL
As for B3, the binding result is listed as “binds”.

B4: mAb29 (regdanvimab) (antibody, V domains shown)
VH: QITLKESGPTLVKPTQTLTLTCSFSGFSLSTSGVGVGWIRQPPGKALEWLALIDWDDNKYHTTSLKTRLTISKDTSKNQVVLTMTNMDPVDTATYYCARIPGFLRYRNRYYYYGMDVWGQGTTVTVSS
VL: ELVLTQPPSVSAAPGQKVTISCSGSSSNIGNNYVSWYQQLPGTAPKLLIYDNNKRPSGIPDRFSGSKSGTSATLGITGLQTGDEADYYCGTWDSSLSAGVFGGGTELTVL
In the case of B4, the binding result is “binds”.

B5: mAb27 (H014) (antibody, V domains shown)
VH: EVQLVQSGAEVKKPGATVKISCKVSGYSFSNYYIHWVKQAPGKSLEWIGYIDPFNGGTSDNLKFKGAATLTADTSTDTAYMELSSLRSEDTAVYYCARSEYDPYYVMDYWGQGTTVTVSS
VL: IVLTQSPFQSVSPKEKVTITCRASQSISSNLHWYQQKPDQSPKLLIKYASQSISGIPSRFSGSGSGTDFTLTINSLEAEDFGIYFCQQTNFWPYIFGQGTKLEIL
With B5, the binding result is recorded as “binds”.

B6: mAb09 (etesevimab) (antibody, V domains shown)
VH: EVQLVESGGGLVQPGGSLRLSCAASGFTVSSNYMSWVRQAPGKGLEWVSVIYSGGSTFYADSVKGRFTISRDNSMNTLFLQMNSLRAEDTAVYYCARVLPMYGDYLDYWGQGTLVTVSS
VL: not shown
For B6, the binding result is listed as “binds”.

B7: mAb15 (C119) (antibody, V domains shown)
VH: QVQLVQSGAEVKKPGASVKVSCKASGYTFTSYYMHWVRQAPGQGLEWMGIINPSGGSTSYAQKLQGRVTMTRDTSTSTVYMELSSLRSEDTAVYYCARANHETTMDTYYYYYYMDVWGKGTTVTVSS
VL: QSALTQPASVSGSPGQSITISCTGTSSDVGGYKYVSWYQRHPGKAPKLMIYDVSNRPSGVSNRFSGSKSGNTASLTISGLQAEDEADYYCSSYTSSSTSVVFGGGTQLTVL
Consider B7, for which the binding result is “binds”.

B8: mAb08 (B38) (antibody, V domains shown)
VH: EVQLVESGGGLVQPGGSLRLSCAASGFIVSSNYMSWVRQAPGKGLEWVSVIYSGGSTYYADSVKGRFTISRHNSKNTLYLQMNSLRAEDTAVYYCAREAYGMDVWGQGTTVTVSS
VL: DIVMTQSPSFLSASVGDRVTITCRASQGISSYLAWYQQKPGKAPKLLIYAASTLQSGVPSRFSGSGSGTEFTLTISSLQPEDFATYYCQQLNSYPPYTFGQGTKLEIK
Regarding B8, the binding result is on record as “binds”.

B9: mAb21 (S2A4) (antibody, V domains shown)
VH: EVQLVESGGGLVQPGGSLRLSCAASGFTFSSYWMNWVRQAPGKGLEWVANIKQDGSEKYYVDSVKGRFTISRDNAKNSLFLQMNSLRAEDTAVYYCARVWWLRGSFDYWGQGTLVTVSS
VL: NFMLTQPHSVSESPGKTVTISCTGSSGSIASNYVQWYQQRPGSAPTTVIYEDNQRPSGVPDRFSGSIDSSSNSASLTISGLKTEDEADYYCQSYDSSNHVVFGGGTKLTVL
For the molecule B9, the binding result is “binds”.

B10: mAb16 (C121) (antibody, V domains shown)
VH: not shown
VL: QSALTQPASVSGSPGQSITISCTGTSSDVGSYNLVSWYQQHPGKAPKLMIYEGSKRPSGVSNRFSGSKSGNTASLTISGLQAEDEADYYCCSYAGSSTLVFGGGTKLTVL
B10: the binding result is on record as “binds”.

B11: mAb19 (CV07-270) (antibody, V domains shown)
VH: QVQLVESGGGLVKPGGSLRLSCAASGFTFSDYYMTWIRQAPGKGLEWVSYISSSGSTIYYADSVKGRFTISRDNAKNSLYLQMNSLRAEDTAVYYCARARGSSGWYRIGTRWGNWFDPWGQGTLVTVSS
VL: B3 VL with D52E, K55N, S82A, N91S, L93Y, I96S, T98N, W99V, K106M
Take B11: the binding result is “binds”.

B12: mAb11 (298) (antibody, V domains shown)
VH: QVQLVQSGAEVKKPGASVKVSCKASGGTFSTYGISWVRQAPGQGLEWMGWISPNSGGTDLAQKFQGRVTMTRDTSTSTVYMELSSLRSEDTAVYYCASDPRDDIAGGYWGQGTLVTVSS
VL: not shown
B12: the binding result is listed as “binds”.

B13: mAb24 (S2E12) (antibody, V domains shown)
VH: not shown
VL: DIVLTQTPGTLSLSPGERATLSCRASQSVSSSYLAWYQQKPGQAPRLLIYGASSRATGIPDRFSGSGSGTDFTLTISRLEPEDFAVYYCQQYVGLTGWTFGQGTKVEIK
Turning to B13, the binding result is reported as “binds”.

B14: mAb14 (C002) (antibody, V domains shown)
VH: EVQLVESGGGVVQPGRSLRLSCAASGFTFSIYGMHWVRQAPGKGLEWVAVISYDGSNKYYADSVKGRFTISRDNSKNTLYLQMNSLRAEDTAVYYCAKEGRPSDIVVVVAFDYWGQGTLVTVSS
VL: not shown
In the case of B14, the binding result is recorded as “binds”.

B15: mAb26 (4A8) (antibody, V domains shown)
VH: EVQLVESGAEVKKPGASVKVSCKVSGYTLTELSMHWVRQAPGKGLEWMGGFDPEDGETMYAQKFQGRVTMTEDTSTDTAYMELSSLRSEDTAVYYCATSTAVAGTPDLFDYYYGMDVWGQGTTVTVSS
VL: EIVMTQSPLSSPVTLGQPASISCRSSQSLVHSDGNTYLSWLQQRPGQPPRLLIYKISNRFSGVPDRFSGSGAGTDFTLKISRVEAEDVGVYYCTQATQFPYTFGQGTKVDIK
Turning to B15, the binding result was “binds”.

B16: mAb10 (52) (antibody, V domains shown)
VH: QVQLVQSGAEVKKPGSSVKVSCKASGYTFTSYGISWVRQAPGQGLEWMGGIIPMFGTTNYAQKFQGRVTITADKSTSTAYMELSSLRSEDTAVYYCARDRGDTIDYWGQGTLVTVSS
VL: DIQMTQSPSSLSASVGDRVTITCRASQGISNNLNWYQQKPGKAPKLLIYAASSLESGVPSRFSGSGSGTDFTLTISSLQPEDFATYYCQQGNGFPLTFGPGTKVDIK
With B16, the binding result is listed as “binds”.

B17: mAb02 (casirivimab) (antibody, V domains shown)
VH: QVQLVESGGGLVKPGGSLRLSCAASGFTFSDYYMSWIRQAPGKGLEWVSYITYSGSTIYYADSVKGRFTISRDNAKSSLYLQMNSLRAEDTAVYYCARDRGTTMVPFDYWGQGTLVTVSS
VL: DIQMTQSPSSLSASVGDRVTITCQASQDITNYLNWYQQKPGKAPKLLIYAASNLETGVPSRFSGSGSGTDFTFTISGLQPEDIATYYCQQYDNLPLTFGGGTKVEIK
Regarding B17, the binding result was “binds”.

B18: mAb23 (COVA1-16) (antibody, V domains shown)
VH: QVQLVQSGAEVKKPGASVKVSCKASGYTFTSYYMHWVRQAPGQGLEWMGIINSSGGSTSYAQKFQGRVTMTRDTSTSTVYMELSSLRSEDTAVYYCARPPRNYYDRSGYYQRAEYFQHWGQGTLVTVSS
VL: B17 VL with M4L, T30S, K39R, A50D, G77S, L94P, V104L
Take B18: the binding result was “binds”.

B19: mAb22 (S304) (antibody, V domains shown)
VH: VQLVESGGGLVQPGGSLRLSCAASGFTFSSYDMHWVRQTTGKGLEWVSTIGTAGDTYYPDSVKGRFTISREDAKNSLYLQMNSLRAGDTAVYYCARGDSSGYYYYFDYWGQGTLLTVSS
VL: DIEMTQSPSSLSAAVGDRVTITCRASQSIGSYLNWYQQKPGKAPKLLIYAASSLQSGVPSRFSGSGSGTDFTLTISSLQPEDFAIYYCQQSYVSPTYTFGPGTKVDIK
Turning to B19, the binding result is “binds”.

B20: mAb25 (S2M11) (antibody, V domains shown)
VH: EVQLVQSGAEVKKPGASVKVSCKASGYTFTGYYMHWVRQAPGQGLEWMGWINPISSGTSYAQTFQGRVTMTSDTSITTAYMELSRLRSDDTAVYYCARAAPFYDFWSGYSYFDYWGQGTLVTVSS
VL: not shown
Regarding B20, the binding result is on record as “binds”.
